Measurements: US20250218531A1 (ABSCI, published 2025)
Residue numbers refer to the chain shown, from its start. Where “and” joins values, the source holds several entries; their conditions need not be identical. Equal entries are not always repeated.

B1: Trastuzumab HCDR3 variant ARYGTGNYAMDY (Fab, V domains shown)
VH: EVQLVESGGGLVQPGGSLRLSCAASGFNIKDTYIHWVRQAPGKGLEWVARIYPTNGYTRYADSVKGRFTISADTSKNTAYLQMNSLRAEDTAVYYCARYGTGNYAMDYWGQGTLVTVSS
VL: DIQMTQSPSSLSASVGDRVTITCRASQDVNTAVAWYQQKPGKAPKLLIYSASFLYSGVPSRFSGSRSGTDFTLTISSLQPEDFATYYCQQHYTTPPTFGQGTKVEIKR
B2: Trastuzumab HCDR3 variant TRNSFGFYAMDY (Fab, V domains shown)
VH: B1 VH with A97T, Y99N, G100S, T101F, N103F
VL: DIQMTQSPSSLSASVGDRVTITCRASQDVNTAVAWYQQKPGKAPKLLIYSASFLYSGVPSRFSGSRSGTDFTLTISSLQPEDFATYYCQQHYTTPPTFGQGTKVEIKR
B3: Trastuzumab HCDR3 variant TRFRSFFYNFDY (Fab, V domains shown)
VH: B1 VH with A97T, Y99F, G100R, T101S, G102F, N103F, A105N, M106F
VL: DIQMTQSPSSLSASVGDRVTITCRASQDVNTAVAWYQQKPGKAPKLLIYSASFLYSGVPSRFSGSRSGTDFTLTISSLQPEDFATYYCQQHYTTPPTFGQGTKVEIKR
B4: Trastuzumab HCDR3 variant ARYGYGYYVMDY (Fab, V domains shown)
VH: B1 VH with T101Y, N103Y, A105V
VL: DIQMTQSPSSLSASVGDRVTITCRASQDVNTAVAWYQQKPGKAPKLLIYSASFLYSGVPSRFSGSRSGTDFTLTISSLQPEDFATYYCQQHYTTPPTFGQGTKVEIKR
B5: Trastuzumab HCDR3 variant ARYYYGFYYFDY (Fab, V domains shown)
VH: B1 VH with G100Y, T101Y, N103F, A105Y, M106F
VL: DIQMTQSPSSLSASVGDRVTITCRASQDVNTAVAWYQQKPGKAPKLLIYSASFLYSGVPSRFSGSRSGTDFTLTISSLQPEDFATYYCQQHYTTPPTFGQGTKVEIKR
B6: Trastuzumab HCDR3 variant AVYSPDFYYLGY (Fab, V domains shown)
VH: B1 VH with R98V, G100S, T101P, G102D, N103F, A105Y, M106L, D107G
VL: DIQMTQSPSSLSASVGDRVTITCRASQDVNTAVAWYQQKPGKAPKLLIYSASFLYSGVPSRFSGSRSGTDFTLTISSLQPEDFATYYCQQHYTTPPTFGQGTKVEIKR
B7: Trastuzumab HCDR3 variant TRYYYGLYYFDY (Fab, V domains shown)
VH: B1 VH with A97T, G100Y, T101Y, N103L, A105Y, M106F
VL: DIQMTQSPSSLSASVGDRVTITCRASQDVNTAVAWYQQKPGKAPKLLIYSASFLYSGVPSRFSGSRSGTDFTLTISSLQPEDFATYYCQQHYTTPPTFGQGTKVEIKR
B8: Trastuzumab HCDR3 variant VRYGGGYYYFDV (Fab, V domains shown)
VH: B1 VH with A97V, T101G, N103Y, A105Y, M106F, Y108V
VL: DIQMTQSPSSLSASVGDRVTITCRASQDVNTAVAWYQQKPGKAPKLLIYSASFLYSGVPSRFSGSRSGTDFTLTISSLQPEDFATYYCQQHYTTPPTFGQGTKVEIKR
B9: Trastuzumab HCDR3 variant VRYGYGYYAMDY (Fab, V domains shown)
VH: B1 VH with A97V, T101Y, N103Y
VL: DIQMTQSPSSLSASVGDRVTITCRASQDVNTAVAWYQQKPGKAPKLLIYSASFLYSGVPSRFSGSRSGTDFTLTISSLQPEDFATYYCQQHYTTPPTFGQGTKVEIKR
B10: Trastuzumab HCDR3 variant TRYGSYYYYFDY (Fab, V domains shown)
VH: B1 VH with A97T, T101S, G102Y, N103Y, A105Y, M106F
VL: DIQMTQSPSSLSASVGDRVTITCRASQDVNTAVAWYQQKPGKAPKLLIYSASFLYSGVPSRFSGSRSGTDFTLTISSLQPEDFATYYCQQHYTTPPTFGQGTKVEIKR
B11: Trastuzumab HCDR3 variant ATYGRDYYHFAS (Fab, V domains shown)
VH: B1 VH with R98T, T101R, G102D, N103Y, A105H, M106F, D107A, Y108S
VL: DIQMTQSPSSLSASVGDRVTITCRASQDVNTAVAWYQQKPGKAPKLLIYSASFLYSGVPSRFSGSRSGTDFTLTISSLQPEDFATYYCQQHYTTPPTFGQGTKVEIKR
B12: Trastuzumab HCDR3 variant ARYGYYSYAMDY (Fab, V domains shown)
VH: B1 VH with T101Y, G102Y, N103S
VL: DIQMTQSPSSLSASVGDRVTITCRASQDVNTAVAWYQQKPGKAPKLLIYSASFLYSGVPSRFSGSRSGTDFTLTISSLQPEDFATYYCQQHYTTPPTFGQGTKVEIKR
B13: Trastuzumab HCDR3 variant TRYGYGYYYMDY (Fab, V domains shown)
VH: B1 VH with A97T, T101Y, N103Y, A105Y
VL: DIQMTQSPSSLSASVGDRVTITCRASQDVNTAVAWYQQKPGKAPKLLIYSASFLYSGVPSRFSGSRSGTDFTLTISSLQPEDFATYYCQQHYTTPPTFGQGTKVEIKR
B14: Trastuzumab HCDR3 variant AVSADIMYGVSV (Fab, V domains shown)
VH: B1 VH with R98V, Y99S, G100A, T101D, G102I, N103M, A105G, M106V, D107S, Y108V
VL: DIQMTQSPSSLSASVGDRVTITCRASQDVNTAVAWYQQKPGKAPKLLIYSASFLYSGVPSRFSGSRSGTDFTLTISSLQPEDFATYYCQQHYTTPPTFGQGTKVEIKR
B15: Trastuzumab HCDR3 variant VRWGGYYYYFDY (Fab, V domains shown)
VH: B1 VH with A97V, Y99W, T101G, G102Y, N103Y, A105Y, M106F
VL: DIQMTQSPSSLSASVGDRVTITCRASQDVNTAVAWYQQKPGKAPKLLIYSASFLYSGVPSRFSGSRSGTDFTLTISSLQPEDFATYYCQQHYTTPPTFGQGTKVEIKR
B16: Trastuzumab HCDR3 variant TRYGGGYYYFDY (Fab, V domains shown)
VH: B1 VH with A97T, T101G, N103Y, A105Y, M106F
VL: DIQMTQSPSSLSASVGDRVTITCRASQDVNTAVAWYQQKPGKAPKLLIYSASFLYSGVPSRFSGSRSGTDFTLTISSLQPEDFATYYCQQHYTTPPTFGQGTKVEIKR
B17: Trastuzumab HCDR3 variant VTYGTTYYHFGS (Fab, V domains shown)
VH: B1 VH with A97V, R98T, G102T, N103Y, A105H, M106F, D107G, Y108S
VL: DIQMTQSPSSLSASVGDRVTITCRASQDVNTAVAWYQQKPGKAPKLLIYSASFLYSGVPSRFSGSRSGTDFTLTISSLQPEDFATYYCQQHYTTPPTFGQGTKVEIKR
B18: Trastuzumab HCDR3 variant ATWHYGGYFMSG (Fab, V domains shown)
VH: B1 VH with R98T, Y99W, G100H, T101Y, N103G, A105F, D107S, Y108G
VL: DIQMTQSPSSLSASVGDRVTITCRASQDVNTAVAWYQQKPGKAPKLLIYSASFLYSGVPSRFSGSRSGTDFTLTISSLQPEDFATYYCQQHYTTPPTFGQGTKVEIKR
B19: Trastuzumab HCDR3 variant ARYPPGYYIMDF (Fab, V domains shown)
VH: B1 VH with G100P, T101P, N103Y, A105I, Y108F
VL: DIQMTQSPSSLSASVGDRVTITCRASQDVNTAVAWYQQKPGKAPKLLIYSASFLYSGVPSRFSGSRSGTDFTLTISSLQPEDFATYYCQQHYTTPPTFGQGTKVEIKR
B20: Trastuzumab HCDR3 variant ATYSFGAYYYVF (Fab, V domains shown)
VH: B1 VH with R98T, G100S, T101F, N103A, A105Y, M106Y, D107V, Y108F
VL: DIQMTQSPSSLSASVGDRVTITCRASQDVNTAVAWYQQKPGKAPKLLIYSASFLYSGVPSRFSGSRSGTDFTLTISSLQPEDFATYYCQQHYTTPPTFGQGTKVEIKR
B21: Trastuzumab HCDR3 variant TRYGAPYFYFDY (Fab, V domains shown)
VH: B1 VH with A97T, T101A, G102P, N103Y, Y104F, A105Y, M106F
VL: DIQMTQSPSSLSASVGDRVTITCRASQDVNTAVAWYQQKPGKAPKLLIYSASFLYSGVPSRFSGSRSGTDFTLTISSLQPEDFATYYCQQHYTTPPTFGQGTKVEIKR
B22: Trastuzumab HCDR3 variant ARYGWGYYYFDY (Fab, V domains shown)
VH: B1 VH with T101W, N103Y, A105Y, M106F
VL: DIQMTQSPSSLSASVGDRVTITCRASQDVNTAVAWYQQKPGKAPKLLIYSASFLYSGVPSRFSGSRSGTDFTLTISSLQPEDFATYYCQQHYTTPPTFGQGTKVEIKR
B23: Trastuzumab HCDR3 variant ARYPGYYYYFDY (Fab, V domains shown)
VH: B1 VH with G100P, T101G, G102Y, N103Y, A105Y, M106F
VL: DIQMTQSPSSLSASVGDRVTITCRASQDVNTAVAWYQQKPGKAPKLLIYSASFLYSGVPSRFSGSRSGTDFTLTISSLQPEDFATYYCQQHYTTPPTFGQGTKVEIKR
B24: Trastuzumab HCDR3 variant ARYGYYLYAMDY (Fab, V domains shown)
VH: B1 VH with T101Y, G102Y, N103L
VL: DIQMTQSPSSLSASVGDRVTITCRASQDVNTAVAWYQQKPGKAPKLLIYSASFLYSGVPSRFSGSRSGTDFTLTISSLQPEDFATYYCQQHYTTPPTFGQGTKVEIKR
B25: Trastuzumab HCDR3 variant ARYGYGYFYMDY (Fab, V domains shown)
VH: B1 VH with T101Y, N103Y, Y104F, A105Y
VL: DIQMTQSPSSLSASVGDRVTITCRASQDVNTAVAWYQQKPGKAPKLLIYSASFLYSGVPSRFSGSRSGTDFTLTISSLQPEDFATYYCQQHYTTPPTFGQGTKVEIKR
B26: Trastuzumab HCDR3 variant TRFLIGSYYYDY (Fab, V domains shown)
VH: B1 VH with A97T, Y99F, G100L, T101I, N103S, A105Y, M106Y
VL: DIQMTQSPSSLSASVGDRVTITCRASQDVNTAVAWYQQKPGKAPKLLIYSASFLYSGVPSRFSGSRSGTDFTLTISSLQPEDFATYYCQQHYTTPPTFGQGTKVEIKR

Biological target: T1, HER2 (human epidermal growth factor receptor 2) (human, UniProt P04626 23-629)
T1 construct: also called Antigen: HER2
Assay: SPR

Binder | Kd | log(KD (M))
B1 | 26.3 nM | -7.58
B2 | 19 nM | -7.72
B3 | 5.4 nM | -8.27
B4 | 8.65 nM | -8.06
B5 | 1.21 nM | -8.92
B6 | 2.06 nM | -8.69
B7 | 3.02 nM | -8.52
B8 | 3.96 nM | -8.4
B9 | 10.7 nM | -7.97
B10 | 3.18 nM | -8.5
B11 | 7.55 nM | -8.12
B12 | 10.2 nM | -7.99
B13 | 5.25 nM | -8.28
B14 | 22.9 nM | -7.64
B15 | 6.35 nM | -8.2
B16 | 3.59 nM | -8.45
B17 | 24.1 nM | -7.62
B18 | 22.5 nM and 22.4 nM | -7.65
B19 | 23.5 nM | -7.63
B20 | 4.73 nM | -8.33
B21 | 18 nM | -7.75
B22 | 14.7 nM | -7.83
B23 | 17.9 nM | -7.75
B24 | 10.1 nM | -7.99
B25 | 21.9 nM | -7.66
B26 | 11.6 nM | -7.93
